Data published in paper PMC11154709, “4S-fluorination of ProB29 in insulin lispro slows fibril formation” (The Journal of Biological Chemistry, 2024).

Assay: Far-UV circular dichroism (secondary structure)
Assay type: physicochemical
Conditions: 60 μM; statement in discussion of CD spectra
Method: Figure 2 Biological activity and CD spectroscopy of lispro variants.A, lispros were injected subcutaneously into diabetic mice, and blood glucose was measured over time after injection. The data presented here represent the mean ± SD of 3 to 6 biological replicates. B–E, far-UV circular dichroism spectra (60 μM lispro in […] phosphate buffer, pH 8.0). […] 4R-F, 4R-fluoroproline; 4S-F, 4S-fluoroproline.
The secondary structure of each insulin lispro variant was probed by circular dichroism spectroscopy. […] All lispro samples were further analyzed by analytical ultracentrifugation (Fig. S3). To determine the dissociation constant of each variant, we fit the data to a reversible monomer-dimer equilibrium ([29]). […]
Circular dichroism spectroscopy:
Equilibrium measurements: The circular dichroism spectra of insulin or lispro samples (60 µM in
100 mM sodium phosphate, pH 8.0) were measured at 25°C in 1 mm quartz cuvettes using a step
size of 0.5 nm and averaging time of 1 s on an Aviv Model 430 Circular Dichroism
Spectrophotom eter. A reference buffer spectrum was subtracted from each sample spectrum. […]
Analytical ultracentrifugation: […]

With “human insulin: 5.8 kDa peptide hormone composed of two disulfide-linked chains (A and B)” the “oligomeric state at 60 μM” value was “exists as a dimer at 60 μM”.
